Measured values as given in US20260226187A1 (BIOATLA, published 2026).

How the values were obtained:
Assay in all cases: cell-based or functional assay
[1] = molecular target: Cynomolgus EpCAM expressed on CHO cells (cynomolgus monkey)
[2] = molecular target: T1, Human EpCAM expressed on cells (CHO-hEpCAM, HCT116) (human, UniProt P16422 24-314)
T1 sequence (looked up): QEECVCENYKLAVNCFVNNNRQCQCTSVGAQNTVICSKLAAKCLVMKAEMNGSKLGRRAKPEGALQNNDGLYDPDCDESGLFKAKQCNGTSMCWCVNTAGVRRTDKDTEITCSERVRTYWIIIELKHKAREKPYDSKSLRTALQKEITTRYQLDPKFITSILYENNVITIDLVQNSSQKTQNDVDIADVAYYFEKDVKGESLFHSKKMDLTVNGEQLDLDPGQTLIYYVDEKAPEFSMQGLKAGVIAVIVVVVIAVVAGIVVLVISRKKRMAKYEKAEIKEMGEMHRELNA

[3] = molecular target: T1, Human EpCAM expressed on cells …; remark: listed apart in the source
[4] = molecular target: Cynomolgus EpCAM expressed on CHO cells (cynomolgus monkey); remark: listed apart in the source
[5] = molecular target: T1, Human EpCAM expressed on cells …; remark: listed apart in the source
[6] = molecular target: T1, Human EpCAM expressed on cells …; remark: listed apart in the source

Chain of Cynomolgus EpCAM expressed on CHO cells (cynomolgus monkey) (Q1WER1 24-314): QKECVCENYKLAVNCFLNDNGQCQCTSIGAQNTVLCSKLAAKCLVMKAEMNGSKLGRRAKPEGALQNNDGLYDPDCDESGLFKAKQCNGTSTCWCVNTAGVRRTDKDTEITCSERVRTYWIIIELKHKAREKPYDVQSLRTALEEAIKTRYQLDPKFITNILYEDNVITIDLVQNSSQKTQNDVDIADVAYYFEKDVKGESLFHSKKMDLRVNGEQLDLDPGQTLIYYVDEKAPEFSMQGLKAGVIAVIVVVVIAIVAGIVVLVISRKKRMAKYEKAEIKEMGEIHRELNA

B1: BA3182 (bispecific antibody, human IgG1, kappa, N297Q)
light: DIQMTQSPSSLSASVGDRVTITCSASSSISYMHWYQQKPGQAPRLLIYSTSNLASGVPSRFSGSGSGTDFTFTISSLEAEDAATYYCHQWSTYHTFGQGTKVEIKRTVAAPSVFIFPPSDEQLKSGTASVVCLLNNFYPREAKVQWKVDNALQSGNSQESVTEQDSKDSTYSLSSTLTLSKADYEKHKVYACEVTHQGLSSPVTKSFNRGECSRSGGGGEVQLVESGGGLVQPGGSLRLSCAASGFTFNTYAMNWVRQAPGKGLEWVARIRSKYNNYATYYADSVKDRFTISRDDSKNSLYLQMNSLKTEDTAVYYCVRHSNFGNSKVSWFAYWGQGTLVTVSSGGSGGSGGSGGSGGQAVVTQEPSLTVSPGGTVTLTCRSSAGAVTTSNYDNWVQQKPGQAPRGLIGGTNKRAPWTPARFSGSLLGGKAALTITGAQAEDEADYYCALWYSNLWVFGGGTKLTVLSR
heavy: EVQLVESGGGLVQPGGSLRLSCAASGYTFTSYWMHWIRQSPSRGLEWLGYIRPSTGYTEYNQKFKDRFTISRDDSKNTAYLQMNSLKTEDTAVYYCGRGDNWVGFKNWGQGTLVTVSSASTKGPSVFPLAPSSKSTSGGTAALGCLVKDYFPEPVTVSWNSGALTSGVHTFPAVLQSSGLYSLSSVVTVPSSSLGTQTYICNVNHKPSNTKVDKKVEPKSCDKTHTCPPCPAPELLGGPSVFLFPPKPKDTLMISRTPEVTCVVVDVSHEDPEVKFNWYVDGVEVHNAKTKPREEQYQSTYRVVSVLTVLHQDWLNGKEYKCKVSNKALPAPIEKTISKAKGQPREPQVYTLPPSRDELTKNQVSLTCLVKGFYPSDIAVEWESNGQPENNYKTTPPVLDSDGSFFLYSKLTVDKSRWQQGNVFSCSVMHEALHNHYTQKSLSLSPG
notes: Human IgG1,k aglycosylated mutant (N297Q) with an anti-CD3 scFv on the C-terminus of each light chain; 200 kDa used for molar concentrations; also called BAP150.31-BF45; BA150.31-BF45
- EC50, T cell activation bioassay (NFAT luminescence), CHO cynoEpCAM cells, pH 6.0, Experiment-1 [1]: 0.545 nM
- EC50, T cell activation bioassay (NFAT luminescence), CHO cynoEpCAM cells, pH 6.0, Experiment-2 [1]: 0.597 nM
- EC50, T cell activation bioassay (NFAT luminescence), CHO cynoEpCAM cells, pH 6.0, Experiment-3 [1]: 0.586 nM
- EC50, T cell activation bioassay (NFAT luminescence), CHO cynoEpCAM cells, pH 7.4, Experiment-1 [1]: 9.46 nM
- EC50, T cell activation bioassay (NFAT luminescence), CHO cynoEpCAM cells, pH 7.4, Experiment-2 [1]: 8.82 nM
- EC50, T cell activation bioassay (NFAT luminescence), CHO cynoEpCAM cells, pH 7.4, Experiment-3 [1]: 10.7 nM
- EC50, T cell activation bioassay (NFAT luminescence), HCT116 cells, pH 6.0, Experiment-1 [2]: 0.292 nM
- EC50, T cell activation bioassay (NFAT luminescence), HCT116 cells, pH 6.0, Experiment-2 [2]: 0.288 nM
- EC50, T cell activation bioassay (NFAT luminescence), HCT116 cells, pH 6.0, Experiment-3 [2]: 0.238 nM
- EC50, T cell activation bioassay (NFAT luminescence), HCT116 cells, pH 7.4, Experiment-1 [2]: 1.86 nM
- EC50, T cell activation bioassay (NFAT luminescence), HCT116 cells, pH 7.4, Experiment-2 [2]: 2.15 nM
- EC50, T cell activation bioassay (NFAT luminescence), HCT116 cells, pH 7.4, Experiment-3 [2]: 1.96 nM
- EC50, cytolysis of HCT116 cells by human PBMC, pH 6.5, donor 13143 [3]: 1.66 pM
- EC50, cytolysis of HCT116 cells by human PBMC, pH 6.5, donor 13290 [3]: 1.03 pM
- EC50, cytolysis of HCT116 cells by human PBMC, pH 6.5, donor 13292 [3]: 2.05 pM
- EC50, cytolysis of HCT116 cells by human PBMC, pH 6.5, donor 13371 [3]: 0.79 pM
- EC50, cytolysis of HCT116 cells by human PBMC, pH 6.5, donor 13397 [3]: 1.19 pM
- EC50, cytolysis of HCT116 cells by human PBMC, pH 6.5, donor 13411 [3]: 1.39 pM
- EC50, cytolysis of HCT116 cells by human PBMC, pH 6.5, donor 75377 [3]: 0.6 pM
- EC50, cytolysis of HCT116 cells by human PBMC, pH 6.5, donor 77535 [3]: 1.52 pM
- EC50, cytolysis of HCT116 cells by human PBMC, pH 6.5, donor 85639 [3]: 0.88 pM
- EC50, cytolysis of HCT116 cells by human PBMC, pH 6.5, donor 97529 [3]: 2.95 pM
- EC50, cytolysis of HCT116 cells by human PBMC, pH 7.4, donor 13143 [3]: 8.73 pM
- EC50, cytolysis of HCT116 cells by human PBMC, pH 7.4, donor 13290 [3]: 4.37 pM
- EC50, cytolysis of HCT116 cells by human PBMC, pH 7.4, donor 13292 [3]: 6.35 pM
- EC50, cytolysis of HCT116 cells by human PBMC, pH 7.4, donor 13371 [3]: 6.96 pM
- EC50, cytolysis of HCT116 cells by human PBMC, pH 7.4, donor 13397 [3]: 5.9 pM
- EC50, cytolysis of HCT116 cells by human PBMC, pH 7.4, donor 13411 [3]: 1.36 pM
- EC50, cytolysis of CHO cynoEpCAM cells by cyno PBMC, pH 6.5, Experiment-1 [4]: 18.9 pM
- EC50, cytolysis of CHO cynoEpCAM cells by cyno PBMC, pH 6.5, Experiment-2 [4]: 15.9 pM
- EC50, cytolysis of CHO cynoEpCAM cells by cyno PBMC, pH 6.5, Experiment-3 [4]: 17.4 pM
- EC50, cytolysis of CHO cynoEpCAM cells by cyno PBMC, pH 7.4, Experiment-1 [4]: 172 pM
- EC50, cytolysis of CHO cynoEpCAM cells by cyno PBMC, pH 7.4, Experiment-2 [4]: 215 pM
- EC50, cytolysis of CHO cynoEpCAM cells by cyno PBMC, pH 7.4, Experiment-3 [4]: 167 pM
- EC50, T cell activation bioassay (NFAT luminescence), CHO hEpCAM cells, pH 6.0, Experiment-1 [5]: 0.051 nM
- EC50, T cell activation bioassay (NFAT luminescence), CHO hEpCAM cells, pH 6.0, Experiment-2 [5]: 0.049 nM
- EC50, T cell activation bioassay (NFAT luminescence), CHO hEpCAM cells, pH 6.0, Experiment-3 [5]: 0.048 nM
- EC50, T cell activation bioassay (NFAT luminescence), CHO hEpCAM cells, pH 7.4, Experiment-1 [5]: 0.358 nM
- EC50, T cell activation bioassay (NFAT luminescence), CHO hEpCAM cells, pH 7.4, Experiment-2 [5]: 0.387 nM
- EC50, T cell activation bioassay (NFAT luminescence), CHO hEpCAM cells, pH 7.4, Experiment-3 [5]: 0.403 nM
- EC50 IL-2 release, human PBMC co-cultured with HCT116, pH 6.5, donor 3371 [6]: 4.56 nM
- EC50 IL-2 release, human PBMC co-cultured with HCT116, pH 6.5, donor 3378 [6]: 7.85 nM
- EC50 IL-2 release, human PBMC co-cultured with HCT116, pH 6.5, donor 3397 [6]: 9.82 nM
- EC50 IL-2 release, human PBMC co-cultured with HCT116, pH 6.5, donor 3411 [6]: 4.92 nM
- EC50 IL-2 release, human PBMC co-cultured with HCT116, pH 6.5, donor 75377 [6]: 23.2 nM
- EC50 IL-2 release, human PBMC co-cultured with HCT116, pH 6.5, donor 77535 [6]: 19.7 nM
- EC50 IL-2 release, human PBMC co-cultured with HCT116, pH 6.5, donor 85639 [6]: 25.6 nM
- EC50 IL-2 release, human PBMC co-cultured with HCT116, pH 6.5, donor 97529 [6]: 15 nM
- EC50 INFγ release, human PBMC co-cultured with HCT116, pH 6.5, donor 3371 [6]: 5.28 nM
- EC50 INFγ release, human PBMC co-cultured with HCT116, pH 6.5, donor 3378 [6]: 6.45 nM
- EC50 INFγ release, human PBMC co-cultured with HCT116, pH 6.5, donor 3397 [6]: 10.1 nM
- EC50 INFγ release, human PBMC co-cultured with HCT116, pH 6.5, donor 3411 [6]: 2.54 nM
- EC50 INFγ release, human PBMC co-cultured with HCT116, pH 6.5, donor 75377 [6]: 2.53 nM
- EC50 INFγ release, human PBMC co-cultured with HCT116, pH 6.5, donor 77535 [6]: 24 nM
- EC50 INFγ release, human PBMC co-cultured with HCT116, pH 6.5, donor 97529 [6]: 2.52 nM
